In publication PMC9346951 (Nature, 2022):
Where two headings read alike, the source gives them in different places. One block for each molecule: values may come before it.

What was measured:
TGA3 NID = target: T1, TGA3 NID (Arabidopsis thaliana, UniProt Q39234); assay: X-ray crystal structure; type: binding; conditions: co-purified from E. coli expression; crystals at pH 5.0, 20 °C
T1 sequence (Q39234 160-384): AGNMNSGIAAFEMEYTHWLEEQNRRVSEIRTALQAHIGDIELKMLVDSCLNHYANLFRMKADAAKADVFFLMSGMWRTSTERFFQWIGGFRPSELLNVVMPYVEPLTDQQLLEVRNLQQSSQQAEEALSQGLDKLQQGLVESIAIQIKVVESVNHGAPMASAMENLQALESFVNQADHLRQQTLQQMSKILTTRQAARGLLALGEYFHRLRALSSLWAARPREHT

[1] = target: the molecule itself; assay: oxidation with hydrogen peroxide, non-reducing SDS–PAGE
[2] = target: T2, Full-length Arabidopsis NPR1 (NPR1–Strep3, E. coli) (Arabidopsis thaliana, UniProt P93002 1-593); assay: cryo-EM structure
T2 sequence (looked up): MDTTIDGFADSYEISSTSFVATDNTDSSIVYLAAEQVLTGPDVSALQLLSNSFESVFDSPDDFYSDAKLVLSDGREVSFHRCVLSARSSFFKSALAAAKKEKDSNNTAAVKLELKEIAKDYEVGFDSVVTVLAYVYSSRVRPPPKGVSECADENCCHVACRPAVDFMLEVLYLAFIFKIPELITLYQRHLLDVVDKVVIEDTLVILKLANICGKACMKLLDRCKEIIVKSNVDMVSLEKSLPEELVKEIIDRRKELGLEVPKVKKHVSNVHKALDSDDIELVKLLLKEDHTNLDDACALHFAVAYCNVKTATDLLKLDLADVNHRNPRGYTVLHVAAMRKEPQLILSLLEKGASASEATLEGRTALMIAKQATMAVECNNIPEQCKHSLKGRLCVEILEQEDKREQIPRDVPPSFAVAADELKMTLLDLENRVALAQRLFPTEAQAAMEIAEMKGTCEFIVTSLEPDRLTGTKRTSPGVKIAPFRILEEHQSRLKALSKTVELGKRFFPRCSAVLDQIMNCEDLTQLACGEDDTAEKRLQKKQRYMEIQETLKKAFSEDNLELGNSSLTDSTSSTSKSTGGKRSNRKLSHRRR

[3] = target: T3, Full-length Arabidopsis thaliana NPR1 (NPR1–Strep, insect cells) (Arabidopsis thaliana), P93002; assay: cross-linking; conditions: remark: other sources report otherwise
T3 chain: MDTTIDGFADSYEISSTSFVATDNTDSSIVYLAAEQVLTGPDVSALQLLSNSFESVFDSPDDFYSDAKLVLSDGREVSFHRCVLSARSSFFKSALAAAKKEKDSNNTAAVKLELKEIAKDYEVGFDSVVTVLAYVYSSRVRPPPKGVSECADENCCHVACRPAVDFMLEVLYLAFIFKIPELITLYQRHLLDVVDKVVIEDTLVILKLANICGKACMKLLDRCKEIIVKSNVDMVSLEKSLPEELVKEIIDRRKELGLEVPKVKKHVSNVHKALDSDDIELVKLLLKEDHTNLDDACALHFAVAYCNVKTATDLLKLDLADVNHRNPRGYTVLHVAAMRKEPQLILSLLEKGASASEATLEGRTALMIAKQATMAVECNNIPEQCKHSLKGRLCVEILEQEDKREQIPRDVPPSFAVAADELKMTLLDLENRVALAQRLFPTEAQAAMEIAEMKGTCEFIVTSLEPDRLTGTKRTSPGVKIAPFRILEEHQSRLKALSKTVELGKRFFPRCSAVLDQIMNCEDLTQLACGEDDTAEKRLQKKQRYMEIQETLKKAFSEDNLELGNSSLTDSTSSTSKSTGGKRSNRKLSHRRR

TGA3;NPR1 = TGA3;NPR1 (Arabidopsis thaliana;Arabidopsis …, UniProt Q39234;P93002 87-384;1-593, |); assay: EMSA
TGA3 [4] = target: T4, TGA3 (Arabidopsis thaliana, UniProt Q39234 87-384); assay: EMSA
T4 sequence: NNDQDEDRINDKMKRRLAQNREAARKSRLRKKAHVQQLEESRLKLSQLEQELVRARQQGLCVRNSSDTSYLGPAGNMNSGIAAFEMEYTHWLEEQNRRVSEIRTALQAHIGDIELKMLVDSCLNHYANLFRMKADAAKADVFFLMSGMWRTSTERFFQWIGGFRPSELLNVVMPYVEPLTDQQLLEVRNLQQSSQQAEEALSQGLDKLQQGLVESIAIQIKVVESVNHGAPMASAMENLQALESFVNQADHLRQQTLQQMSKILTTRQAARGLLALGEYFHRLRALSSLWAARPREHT

NPR1 = NPR1 (Arabidopsis thaliana, UniProt P93002 1-593); assay: EMSA
TGA3 [5] = target: T4, TGA3; assay: EMSA; remark: listed apart in the source

X-ray crystal structure (1.5 Å); LC-ESI/MS of extracted lipid (TGA3 NID): a palmitic acid was found inside the NID
Molecule: CCCCCCCCCCCCCCCC(=O)O [palmitic acid]

B1: NPR1 BTB/BHB (Thr39–Lys262) npr1(C82A) (domain or fragment, Arabidopsis thaliana, UniProt P93002 39-262, looked up)
chain: TGPDVSALQLLSNSFESVFDSPDDFYSDAKLVLSDGREVSFHRAVLSARSSFFKSALAAAKKEKDSNNTAAVKLELKEIAKDYEVGFDSVVTVLAYVYSSRVRPPPKGVSECADENCCHVACRPAVDFMLEVLYLAFIFKIPELITLYQRHLLDVVDKVVIEDTLVILKLANICGKACMKLLDRCKEIIVKSNVDMVSLEKSLPEELVKEIIDRRKELGLEVPK
binding result [1]: binds

B2: WT NPR1 BTB/BHB (Thr39–Lys262) (domain or fragment, Arabidopsis thaliana, UniProt P93002 39-262, looked up)
chain: TGPDVSALQLLSNSFESVFDSPDDFYSDAKLVLSDGREVSFHRCVLSARSSFFKSALAAAKKEKDSNNTAAVKLELKEIAKDYEVGFDSVVTVLAYVYSSRVRPPPKGVSECADENCCHVACRPAVDFMLEVLYLAFIFKIPELITLYQRHLLDVVDKVVIEDTLVILKLANICGKACMKLLDRCKEIIVKSNVDMVSLEKSLPEELVKEIIDRRKELGLEVPK
binding result [1]: binds

B3: NPR1 BTB/BHB (Thr39–Lys262) npr1(C212V/C216A/C223L) (domain or fragment, Arabidopsis thaliana, UniProt P93002 39-262, looked up)
chain: TGPDVSALQLLSNSFESVFDSPDDFYSDAKLVLSDGREVSFHRCVLSARSSFFKSALAAAKKEKDSNNTAAVKLELKEIAKDYEVGFDSVVTVLAYVYSSRVRPPPKGVSECADENCCHVACRPAVDFMLEVLYLAFIFKIPELITLYQRHLLDVVDKVVIEDTLVILKLANIVGKAAMKLLDRLKEIIVKSNVDMVSLEKSLPEELVKEIIDRRKELGLEVPK
binding result [1]: binds

binding result [2]: binds
B4: Arabidopsis TGA3 (Asn87–Thr384) (domain or fragment, Arabidopsis thaliana, UniProt Q39234 87-384, looked up)
chain: NNDQDEDRINDKMKRRLAQNREAARKSRLRKKAHVQQLEESRLKLSQLEQELVRARQQGLCVRNSSDTSYLGPAGNMNSGIAAFEMEYTHWLEEQNRRVSEIRTALQAHIGDIELKMLVDSCLNHYANLFRMKADAAKADVFFLMSGMWRTSTERFFQWIGGFRPSELLNVVMPYVEPLTDQQLLEVRNLQQSSQQAEEALSQGLDKLQQGLVESIAIQIKVVESVNHGAPMASAMENLQALESFVNQADHLRQQTLQQMSKILTTRQAARGLLALGEYFHRLRALSSLWAARPREHT

stoichiometry N [3]: 2
B5: Full-length Arabidopsis thaliana NPR1 (NPR1–Strep, insect cells), P93002 1-593 (natural protein)
chain: MDTTIDGFADSYEISSTSFVATDNTDSSIVYLAAEQVLTGPDVSALQLLSNSFESVFDSPDDFYSDAKLVLSDGREVSFHRCVLSARSSFFKSALAAAKKEKDSNNTAAVKLELKEIAKDYEVGFDSVVTVLAYVYSSRVRPPPKGVSECADENCCHVACRPAVDFMLEVLYLAFIFKIPELITLYQRHLLDVVDKVVIEDTLVILKLANICGKACMKLLDRCKEIIVKSNVDMVSLEKSLPEELVKEIIDRRKELGLEVPKVKKHVSNVHKALDSDDIELVKLLLKEDHTNLDDACALHFAVAYCNVKTATDLLKLDLADVNHRNPRGYTVLHVAAMRKEPQLILSLLEKGASASEATLEGRTALMIAKQATMAVECNNIPEQCKHSLKGRLCVEILEQEDKREQIPRDVPPSFAVAADELKMTLLDLENRVALAQRLFPTEAQAAMEIAEMKGTCEFIVTSLEPDRLTGTKRTSPGVKIAPFRILEEHQSRLKALSKTVELGKRFFPRCSAVLDQIMNCEDLTQLACGEDDTAEKRLQKKQRYMEIQETLKKAFSEDNLELGNSSLTDSTSSTSKSTGGKRSNRKLSHRRR

B6: LS5/LS7 (dsDNA)
DNA 1: GGGCTATGACGTAAGTAAAATAGTGACGTAGAGAGGG
DNA 2: CCCTCTCTACGTCACTATTTTACTTACGTCATAGCCC
binding result (TGA3;NPR1): binds
binding result (TGA3 [4]): binds
binding result (NPR1): no binding

B7: LS5-/LS7- (dsDNA)
DNA 1: GGGCTAAAAAAAAAGTAAAATAGAAAAAAAAAGAGGG
DNA 2: CCCTCTTTTTTTTTCTATTTTACTTTTTTTTTAGCCC
binding result (TGA3 [5]): no binding
